From publication PMC6669743

Target: HAdV-5T* virion (mutant HAdV-5 unable to bind to human or murine FX) (human adenovirus 5) (UniProt P04133)
Experiment: co-sedimentation; 2 x 10^11 vp of virus incubated with 250 uL C57BL/6 mouse serum for 30 min at 37 C; virions and bound proteins purified by CsCl gradient ultracentrifugation without cross-linking; LC-MS/MS with label-free quantification normalised to hexon

| Substance | fold change of bound amount against HAdV-5 |
| --- | --- |
| complement component C3 (mouse) (from UniProt P01027) (natural protein) | 40.2 fold |
| complement component C4b (mouse) (from UniProt P01029) (natural protein) | 87.8 fold |
